In the experiment the target is BF520.M6.I1 Env (HIV-1 (clade A, infant BF520)).

This is an account of results in publication PMC6522554.

B1: BF520.1 mature mAb (IgG) (antibody, V domains shown)
VH: QVQLVQSGAEMKMPGASVKVSCKASGYTFTGNYIHWVRQAPGQGLEWMGWIAPHSGDTSYAQRFQGRVTMTGDTSLSTAYMELSRLRSDDTAVYYCARGPFPNYYGPGSYWGGLDFWGQGTLVSVSS
VL: EIVMTQSPATLSVSLGERATLSCRTSQNVAYNFAWYQQKPGQAPRLLIYEASSRATGTPARFSGSGFGTEFTLTISSMQSEDFAVYYCQQYNNWPSPFTFGPGTKVHIK
In the case of B1, the potency (IC50) of neutralization of the autologous pseudovirus BF520.M6.I1 was determined as 1.1 μg ml^−1.
